Measured values taken from the Immune Epitope Database (IEDB).

Assays:
Test in all cases: IEDB peptide-MHC binding, purified MHC/competitive/fluorescence; filed as Kd, often an IC50 or EC50 that approximates it; ≥ and ≤ were set here for values at or beyond the usual limits of such assays
Conditions in all cases: source organism: Entamoeba histolytica HM-1:IMSS
[1] = biological target: HLA-A*02:01
[2] = biological target: HLA-A*02:03
[3] = biological target: HLA-A*02:12
[4] = biological target: HLA-A*02:16
[5] = biological target: HLA-A*02:19
[6] = biological target: HLA-A*03:01
[7] = biological target: HLA-A*23:01
[8] = biological target: HLA-A*24:03
[9] = biological target: HLA-A*29:02
[10] = biological target: HLA-A*30:02
[11] = biological target: HLA-A*66:01
[12] = biological target: HLA-A*68:02
[13] = biological target: HLA-B*07:02
[14] = biological target: HLA-B*08:01
[15] = biological target: HLA-B*14:02
[16] = biological target: HLA-B*15:17
[17] = biological target: HLA-B*27:03
[18] = biological target: HLA-B*27:05
[19] = biological target: HLA-B*39:01
[20] = biological target: HLA-B*40:01
[21] = biological target: HLA-B*46:01
[22] = biological target: HLA-B*51:01
[23] = biological target: HLA-B*53:01
[24] = biological target: HLA-B*58:01

With EVRKAIEFV the Kd [1] was ≥ 20 µM, the Kd [2] was ≥ 20 µM and the Kd [3] was ≥ 20 µM. The Kd [4] was ≥ 20 µM, the Kd [5] was ≥ 20 µM and the Kd [6] was ≥ 20 µM. For the same sequence, the Kd [7] was 1.3 µM, the Kd [8] was ≥ 20 µM and the Kd [9] was ≥ 20 µM. For the same sequence, the Kd [10] was ≥ 5 µM, the Kd [11] was 0.279 µM and the Kd [12] was ≤ 0.001 µM. For the same sequence, the Kd [13] was ≥ 5 µM, the Kd [14] was ≥ 5 µM and the Kd [15] was ≥ 5 µM. The Kd [16] was ≥ 20 µM, the Kd [17] was ≥ 20 µM and the Kd [18] was ≥ 5 µM. The Kd [19] was ≥ 20 µM, the Kd [20] was ≥ 5 µM and the Kd [21] was ≥ 20 µM. The Kd [22] was ≥ 20 µM, the Kd [23] was ≥ 5 µM and the Kd [24] was ≥ 5 µM.
